Experimental data: the nanobody polyreactivity screen of Harvey et al. (2022)

Assay: yeast display, Sf9 membrane polyspecificity reagent, FACS + sequencing; frameworks hold sequencing errors
Method in brief: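 Synthetic nanobody libraries on Saccharomyces cerevisiae BJ5465 were galactose-induced for 36–48 hours, stained 1 hour at 4 °C with 10% biotinylated, detergent-solubilized Sf9 membrane reagent and enriched on streptavidin microbeads. FACS then separated cells into low and high (top ~1%) gates by anti-HA (expression) and streptavidin (reagent binding) fluorescence. Genes were colony-PCR amplified, MiSeq 2 × 250 sequenced and CDR-length filtered. A clone's polyreactivity label is that of its gate of origin.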

Sequence	polyreactivity (PSR sort gate)
QVQLVESGGGLVQAGGSLRLSCAASGSIFVGTAMGWYRQAPGKERELVADINSGGSTNYADSVKGRVTISRDNAKNTVYLQMNSLKPEDTAVSYCAKSAVSGTYDYWGQGTQVTVSS	low polyreactivity
QVQLVESGGGLVQAGGSLRLSCAASGSISYRYVMGWYRQAPGKERELVAAITTSGGSTYYADSVKGRFTISRDNAKNTVYLQMNSLKPEDTAVYYCATVYQAAQLRSHYDYWGQGTQVTVSS	high polyreactivity
QVQLVESGGGLVQAGGSLRLSCAASGFTFCQYVMGWYRQAPGKERELVAAINWSGGSTYYADSVKGRFTISRDNAKNTVYLQMNSLKPEDTAVYYCNAVKAPYLRYDYWGQGTQVTVSS	high polyreactivity
QVQLVESGGGLVQAGGSLRLSCAASGRTFVTNAMGWYRQAPGKERELVAAISGTGGSTYYADSVKGRFTISRDNAKNTVYLQMNSLKPEDTAVYYCNKDYHVRYYYWGQGTLVTVSS	low polyreactivity
QVQLVESGGGLVQAGGSLRLSCAASGSIFKYYTMGGYRQAPGKERELVAAISGSGSRTYYADSVKGRFTISRDNAKNTVYLQMNSLKPEDTAVYYCAAEVKDSFVNAKSYYWGQGTQVTVSS	high polyreactivity
QVQLVESGGGLVQAGGSLRLSCAASGSIFGLYAMGWYRPAPGKERELVAAISRTGGSTYYADSVKGRFTLSRDNAKNTVYFQMHSLKPEETAVYYCAAKYQYTQYDYWGQGTQVTVSS	high polyreactivity
QVQLVESGGGLVQAAGSLRLSCAASGLTFRVNDMGWYRQAPGKERELVATISSGGSTYYADSVKGRFTISRDNAKNTVYLQMNSLKAVDTAVYYCATNSEGQESNSYYVWMGYWGQGTKVTVSS	low polyreactivity
QVQLVESGGGLVQAGGSLRLSCAASGSIFLTYAMGWYRQAPGKERELVAAISSSVGSTNYADSVKGRFTISRDNAKNTVYLQMNSLKPEDTAVYYCNATGVQYFLYGYWGQGTQVTVSS	low polyreactivity
QVQLVESGGGLVQAGGSLRLSCAASGRTFYRNAMGWYRQAPGKERELFATINSGGSTHYADSVKGRFTISRDNAKNTVYLQMTSLKPEDNAVYYCAARSQSYRGSLSYYWGQGTQVTVSS	high polyreactivity
QVQLVESGGGLDQAGGSLRLSCAASGRIFHVNVMGGYRQAPGKERELVAAISKSGGSTYYADSVKGRFTISRDNAKNTVYLQMNSLKPEDTAVYYCAAVRDSARYYYWGQGTHVTVSS	high polyreactivity
QFQLVETVGGLVQAGGSLRLSCAASGSIFPGYAMGWYRQAPGKERELVATITWSGGSTYYADSVKGRFTISRDNAKNTVYLQMYSLIPEDTAVYYFNADSNWYYQWNYYGLYDYWGKGTQVTVSS	low polyreactivity
QVQLVESGGGLVQAGGSLRLSCAASGITLTKYGMGWYRQAPGKERELVAAISGSGGSTYYADSVKGRFTISRDNAKNTVYLQMNSLKPEDTAVYYCAARALYPRYYYWGQGTQVTVSS	high polyreactivity
QVQLVESGGGLVQAGGSLRLSCAASGFTFDKYAMGWYRQAPGKERELVAAITQNGGSTNYADSVKGRFTISRDNAKNTVYLQMNSLKPEDTAVYYCATRSSYLSYVSRMYYWGQGTQVTVSS	high polyreactivity
QVQLVESGGGLVQAGGSLRLSCAASGSTFVKYAMGWYRQAPGKERELVAAITASGGRTYYADSVKGRFTISRDNAKNTVYLQMISLKPEDTAVYYCNARGYHYGTLFDYWGQGTQVTVSS	high polyreactivity
QVQLVESGGGLVQAGGSLRLSCAASGYSFYYYAMVWYRQAPGKERELVAAITSGDSTYADSVKGRFTISRDNAKNTVYLQMNSLKPEDTAVYYCNRDTDYGFDYWGQGTQVTVSS	low polyreactivity
QVQLVESGGGLVQAGGSLRLSCAASGYIFYYYTMGWYRQATGKEREFVAAISYSVGSTYADSVKGRFTISRDNAKNTVYLQMNSLKPEDTAVYYCNAVTIRNVYYSGGYWGQGTQVTVSS	high polyreactivity
QVQLVKSGGGLVQAGGSLRLSCAASGSTFYNAMGWYRQAPGKERELVAAISIGGSTYYADSVKGRFTNSRDNAKNTVYLQMNSLKPEDTAVYYCNTETGPSPVPVYDTEFDSWGQGTQVTVSS	low polyreactivity
QVQLVESGGGLVQAGGILRLSSAASGLILPDYAMGWYRQAPGKERELVAAISEYAGSTYYADSVKGRFTISRDNAKNTVYLQMNSLKPEDTAVYYCAAEVWFYSWYFWYYDGEDYWGQGTQVTVSS	high polyreactivity
QVQLVQSGGGLVQAGGSLRLSCAASGRIFGSYAMGWSRQAPGKERELGAAISYSGGSTYYADSVKGRFTMSRDNAKNTVYLQMHSLKPEDTAVYYCNVDRYYGYFSVRGGYWGQGTQGTVSS	low polyreactivity
QVQLVESGGGLVQAGGSLRLSCAASGSIFVRYTMAWYRQAPGKERELVAAISWGGGSTYYADSVKGRFTISRDNAKYTVYLQMNSLKPEDTAVYFCNKRYIQLYDYWGQGTQVTVSS	low polyreactivity
QVQLVESGGGLVQAGGSLRLSCAASGGIFVSYAMGWYRQAPGNERELVAAITSGGGTSYADSVKGRFTISRDNAKNTVYLQMNSLKPEDTAVYYCNADGYLAERFVIRLDEYRDYDYWGQGTQVTVSS	low polyreactivity
QVQLVESGGGLVQAGGSLRLSCAASGSTFPAYAMGWYRQAPGKERELVATITYTGGSTYYADSVKGRFTISRDNAKNTVYLQMNSLKPEDTAVYYCAADRLVQEDEFDYWGQGTQVTVSS	low polyreactivity

Sequence	polyreactivity (PSR sort gate)
QVQLVESGGGLVQAGGSLRLSCAASGIIFWVNAMGWYRQAPGKERELVAAIRSDGSTKYADSVKGRFTISRDNAKNTVYLQMNSLKPEDTALYYCAKRDYSYPWFRDYYYWGQGTQVTVSS	low polyreactivity
QVQLVESGGGLVQAGGSLRLSCAASGSIFYVYAMGWYRQAPGKERELVASINKYGGSTYYADSVKGRFTISRDNAKNTVYLQMNSLKPADTAVYYCAARTGWPRVGFQYPAHVGFDYWGQGTQVTVSS	low polyreactivity
QVQLVESGGGLVQAGGSLRLSCAASGRTFRYYAMGWYRQAPGKERELVAAITSSGGSTYYADSVKGRFTISRDNAKNTVYLQMNSLKPEDTAVYYCNRTPYHAPWQDALYRYGYWGQGTQVTVSS	high polyreactivity
QVQLVESGGGLVQAGGSLRLSCAASGSIFSRYAMGWYSQAPGKELELVAAISWRGGSTYYADSVKGRFTISRDNAKNTVYLQMNSLKPEDTAVYYCAVRDYRPYSRFDFWGQGTQVTVSS	high polyreactivity
QVQLVESGGGLVQAGCSVRLSCAATGSSFVDNAMGWYRQAPGKERELVAANDGSADSTYYADSVKGRFTISRDNAKNTVYLQLNSLKPEATAVYYCAAVDYWTKFDYWGQGTQVTVSS	low polyreactivity
QVQLEESGGGLVQAGGSLRLSCPASGYTFESNAMGWSRQAPRKERELVAAINGGGGTYYADSVKGRFTISRDNGKNTVYLQMNSLKPEDTAVNVDIGFAYVPNYDYWGQGTQVTVSS	low polyreactivity
QVQLGESGGGLVQAGGSLRLSCAASGNTFFTYAMGWYRQAPGKERELVAVITSVGSTNYADSVKGRFTISRDNAKNTVYLQMNSLKPEDTAVYYCAARTRRGLARYDYWGHGTQVTVSS	high polyreactivity
QVQLEESGGGLVQAGGSLRLSCAASGLIFVDNAMGGSRQATGKERALVASIDSGGSTNYADSVKGRFTISRDNAKNTFYLQMNSLKPEDTAVYYCSADWIYAPWYYQESVEYYYWGQGTQVTVSS	low polyreactivity
QVQLVESGGGLVQAGGSLRLSCAASGRTFNPYAMGWYRQAPGKERELVAVISSIGGSTYADSVKGRFTISRDNAKNTVYLQMNSLKPEDTAVYYCNRATFGQWGGDYWGQGTQVTVSS	high polyreactivity
QVQLVESGGGLVQAGGSLRLSCAASGFIFSHYAMGWYRQAPGKERELVAAIRSGGTTNYADSVKGRFTISRDNAKHTVYLQMNSLKPEDTAVYYCAASSRRSWTYDYWGQGTQVTVSS	high polyreactivity
QVQLVESGGGLVQAGGSLRLSCAASGSIFVANAMGWYRQAPGKERELVAAISVRGGRTYYADSVKGRFTISRDNAKNTVYLQMNSLKPEDTAVYYCARVLRSDVADYDYWGQGTQVTVSS	high polyreactivity
QVQLVESGGGLVQAGGSLRLSCAASGFIFRPYTMGWYRQAPGKERELVAAITSGGSTYYADSVKGRFTISRDNAKNTVYLQMNSLKPEDTAVYYCAARYQLYRRGYDYWGQGTQVTVSS	high polyreactivity
PVQLVESGGGLVQAGGSLRLSCAASGSTFDAYDLGWYRQAPGKERELVAAINWSGGITYYADSVKGRFTISRDNAKNTVYLQMNSLKPEDTAVYYCNADASFYSRVNYWGQGTQVTVSS	high polyreactivity
QVHLVESGGGLVQAGGSLRLSCAASVFTFNSNAMGWYRQAPGKERELVAAISWSGGSTYYADSVKGRFTISRDNAKNTVYLLMNSLKPEDTAVYYCAKGYRRVYGPFYYWGQGTQLTVSS	low polyreactivity
QVQLVESGGGLVQAGGSLRLSCAASGSTFWPYAMGWYRQATGKERELVAAISNGGGTKYADSVKGRFTISRDNAKNTVYLQMNSLKPEDTAVYYCAKTLWTGRAWYDYWGQGTQVTVSS	high polyreactivity
QVQLVESCGCLVQAGGSLRLSCAASGSTFRKYAMGWYRQAPGKEREFVAAITWSTGTTYYADSVKGRFTISRDNAKNTVYLQMNSLKPEDTAVYYCAADSQPPHELYESIEHESWGQGTQVTVSS	low polyreactivity
QDQLVESGGGLVQAGGSLRLSCAASGSILIHNAMGWSRQAPGKERELVAAITSGGSTNYADSVKGRFTISRDNAKNTVYLQMNSLKPEDTAVYYCATAVGRVLVGYDYWGQGTQVTLSS	low polyreactivity
QVQLVESGGGLVQAGGSLRLSCAASGSIFFSYAMGWYRQAPGKEREGGSTDYADSVKGRFTISRDNAKNTVYLQMNSLKPEDTAVYYCAASVRGIRYDYWGQGTQVTVSS	low polyreactivity
QVQLVESGGGLVQAGGSLRLSCAPSGRIFYGYAMGWYRQAPGKERELVAAITSGSRTNYADSVKGRFTISRDNAKNTVYLQMNSLKPEDTAVYYCHSLYGSYLYSLVHTSRYDYWGQGSQVTVSS	low polyreactivity
QVQLVESGGGLVQAGGSLRLSCAASGFTFWYYAMGWYRQAPGKERELVAAIDSGVTRTYYADSVKGRFTISRDNAKNTVYLQMNSLKPEDTAVYYCNADFVWRGDYWGQGTQVTVSS	low polyreactivity
QVQLVESGGGLVQAGGSLRLICAASGLIFWGYAMGWYRQAPGKERELVAAISSSGGSTYYADSVKGRFTISRDNAKNTVYLQINSLKPEDTAVYYCNADYTYYPGYDYWGQGTLVTVSS	low polyreactivity
